Format in all cases: cell-based
Assay [1] concerns MC3T3-E1 cells. Kind of assay: Differentiation of osteoblast progenitor culture mass in biogel (ALP/ACP assay, ALP staining). The following applies: day 3 and day 7. The procedure: Osteoblasts progenitor cells, MC3TC-E1 were mixed with the biogel prepared in Example 6, in amounts of […], and 100 μL of each of the resulting mixture solution was gelled using a casting gel, to consequently yield three-dimensional culture mass, each containing 7×10^3 and 1×10^5 cells. Then, the three-dimensional culture mass were three-dimensionally cultured for 7 days in osteoblast media, which were formed by adding 10 mM of β-glycerophosphate (Sigma Aldrich, USA), 50 μg/ml of ascorbic acid (Sigma Aldrich, USA), and 10 nM of dexamethasone (Sigma Aldrich, USA) to growth media supplemented with α-MEM (Welgene, Korea) supplemented with 10% fetal bovine serum (FBS) (Gibco, USA), 100 U/ml of penicillin (Welgene, Korea), and […] of streptomycin (Welgene, Korea). Thereafter, on day 3 and day 7 of culturing, differences in the expression level of ALP protein, which is an early osteoblast differentiation factor, were examined at different cell densities of culture mass, using ALP assay kit (Abcam, ab83369) and ALP staining kit (Sigma, P5869). […]
(§1) Subsequently, on day 3 and day 7 of culturing, the MC3T3-E1 cells were measured for the osteoclast differentiation marker ACP, and the RAW264.7 cells were measured for the osteoblast differentiation marker ALP, to determine the influence of their respective differentiation markers on each other.

Assay [2] relates to RAW264.7 cells. Description: Differentiation of osteoclast progenitor culture mass in biogel (ACP/ALP assay, TRAP staining). The following applies: RAW264.7 in biogel, 100 ng/ml Rankl, compared to control group (GM). The procedure: 8-2. Culturing of Osteoclasts Osteoclast progenitor cells RAW264.7 were mixed with the biogel prepared in Example 6, in amounts of 5×10^5 cells/ml, 7×10^5 cells/ml, 1×10^6 cells/ml, and 3×10^6 cells/ml, and 100 μL of each of the resulting mixture liquids was gelled using a casting gel, to consequently yield three-dimensional culture mass, each containing 5×10^4 cells, 7×10^4 cells, 1×10^5 cells, 3×10^5 cells, and […]. Then, the three-dimensional culture mass were three-dimensionally cultured for 7 days in osteoclast media, which were formed by adding 100 ng/ml of Rankl to growth media containing α-MEM (Welgene, Korea) supplemented with 10% fetal bovine serum (FBS) (Gibco, USA), 100 U/ml of penicillin (Welgene, Korea), and […] of streptomycin (Welgene, Korea). Then, using ACP assay kit (Abcam, ab83367) and TRAP staining kit (Sigma, 181A), differences in the expression level of osteoclast differentiation factor were examined at different cell numbers. […]
as §1

The test system of assay [3] is MC3T3-E1 cells and RAW264.7 cells co-culture. Description: Differentiation in 3D co-culture mass in biogel (ALP and ACP assay, ALP and TRAP staining). The procedure: In detail, after dissolving 0.5% agarose in 300 mM CaCl2 solution, the Phenol Red solution was added in an amount of 5 mg/L to produce a casting gel solution. Then, after introducing 5-5.5 ml of the casting gel solution into a casting tray, a three-dimensional semi-spherical casting mold was inserted in the casting tray, and after completely solidifying the casting gel solution, the casting mold was carefully removed to produce a three-dimensional semi-spherical casting gel mold. The biogel, 1×10^5 cells/ml of osteoblast progenitor cells MC3T3-E1, and 5×10^4 cells/ml of osteoclast progenitor cells RAW264.7, were introduced into the casting gel mold and subjected to gelation to yield a three-dimensional co-culture mass. Then, the co-culture mass was cultured in the following media: media treated only with an osteoblast differentiation induction factor (+3F); media only treated with an osteoclast differentiation induction factor (+R); and media treated with both osteoblast differentiation induction factor and osteoclast differentiation induction factor (+3F+R). Then, osteoblast differentiation profiles were characterized through ALP expression levels.
9-2. Creating the bone resorption environment through co-culture of osteoblasts and osteoclasts Under the same conditions as shown in Example 9-1, osteoclast differentiation profiles were characterized by […].

The values below come from patent US12252711B2, “Osteoporosis model comprising calcium phosphate hydrogel composition and use thereof” (MEDIFAB CO., LTD., priority 2019, dated 2025).

B1: Rankl (protein, UniProt O14788 140-317, looked up)
Tumor necrosis factor ligand …: IRAEKAMVDGSWLDLAKRSKLEAQPFAHLTINATDIPSGSHKVSLSSWYHDRGWAKISNMTFSNGKLIVNQDGFYYLYANICFRHHETSGDLATEYLQLMVYVTKTSIKIPSSHTLMKGGSTKYWSGNSEFHFYSINVGGFFKLRSGEEISIEVSNPSLLDPDQDATYFGAFKVRDID
notes: 100 ng/ml of Rankl added to growth media
Regarding B1, in assay [1], the “expression of osteoblast differentiation marker ALP” value is listed as “little expression” and the “expression of osteoclast differentiation marker ACP” value is “little expression”. For the same molecule, the “expression of osteoclast differentiation factor ACP” value in assay [2] was “increased”. In assay [3] (combined treatment compared with osteoblast factor only), the “ALP expression (osteoblast differentiation)” value was “trace amount”. For the same molecule, the “ACP expression (osteoclast differentiation)” value in assay [3] (day 3 and day 7, combined treatment compared with osteoclast factor only) is recorded as “increased”.
